Experimental findings from patent US10774132B2, “Ultralong complementarity determining regions and uses thereof” (THE SCRIPPS RESEARCH INSTITUTE, priority 2012, dated 2020) are described below.

The nature of this data set: Pharmacokinetics in mice (ELISA of blood samples). It is filed as in vivo. Conditions: 70 μg injected, BALB/c mice. As to the method: For PK study in mice, 70 μg of the immunoglobulin constructs described herein were injected into 3 BALB/c mice per group. Blood samples were drawn from time 0 to 14 days with extended intervals and analyzed by ELISA using anti-human IgG Fc antibody with horseradish peroxidase (HRP) labeled (KPL) and anti-6×His antibody (“6×His” disclosed as SEQ ID NO: 511) with HRP labeled (Clontech). Data were normalized by taking maximal concentration at the first time point (30 min).
(In general: In an ELISA, binding on a coated surface is turned into a signal by an enzyme label.)

B1: Ab: bovine BLV1H12 antibody with ultralong CDR3, no insertion; scaffold of the fusions and control (antibody)
heavy: QVQLRESGPSLVKPSQTLSLTCTASGFSLSDKAVGWVRQAPGKALEWLGSIDTGGNTGYNPGLKSRLSITKDNSKSQVSLSVSSVTTEDSATYYCTSVHQETKKYQSCPDGYRERSDCSNRPACGTSDCCRVSVFGNCLTTLPVSYSYTYNYEWHVDVWGQGLLVTVSS
light: QAVLNQPSSVSGSLGQRVSITCSGSSSNVGNGYVSWYQLIPGSAPRTLIYGDTSRASGVPDRFSGSRSGNTATLTISSLQAEDEADYFCASAEDSSSNAVFGSGTTLTVLGQPKSPPSVTLFPPSTEELNGNKATLVCLISDFYPGSVTVVWKADGSTITRNVETTRASKQSNSKYAASSYLSLTSSDWKSKGSYSCEVTHEGSTVTKTVKPSECS
With B1, the “Percentage (blood level normalized to first time point, 30 min)” value came out at 100.00% (day 0.021); 106.09% (day 0.042); 95.88% (day 0.083); 86.54% (day 0.125); 74.26% (day 0.250); 52.43% (day 1.000). The “Percentage (blood level normalized to first time point, 30 min)” value is 39.46% (day 2.000); 36.97% (day 3.000); 45.44% (day 8.000); 40.98% (day 10.000); 51.96% (day 14.000).
